Data: the DeepSol protein solubility set

Test: soluble on expression in E. coli; label from the status in PepcDB or PDB records

Row | Sequence | soluble on expression in E. coli
1 | MGSDKIHHHHHHMARQFVYFMQGLTKAYPTRKVLDNVHLSFYPDAKIGVLGVNGAGKSTLLKIMAGIDKEYTGEAWVAEGARVGYLEQEPQLDPALTVRENVMLGVAKQKAILDRYNELAMNYSEETADEMTALQDQIESAGLWDLDSKVDQAMDALRCPPDDADVTKLSGGERRRVALCKLLLDQPDLLLLDEPTNHLDAESVSWLESHLRNYPGAILIVTHDRYFLDNVTSWILELDRGRGIPYEGNYSSWLVQKQKRLLQEGREDAAHQKTLEREQEWIASSPKARQAKSKARYQRYEELLAKASEKQTQTAQIIIPVAERLGNNVVDFEHLTKGFGDKLLIDDLTFKLPPGGIVGVIGPNGAGKTTLFRMITGQEKPDQGTITVGETVHLGYVDQSRDSLDAKKTVWEEISGGNELILLGKKEVNSRGYCSAFNFKGGDQQKKVGSLSGGERNRVHLAKMLKSGANVLLLDEPTNDLDVDTLRALEEALEDFAGCAVIISHDRWFLDRIATHILAFEDDSHVEWFEGNFQDYEKDKMRRLGQDAIIPHRAKYKKLTR | not soluble
2 | MGSDKIHHHHHHMATPPFHYQHMFPLGPDKTEYYLLTKDYVSVSEFEGKPILKIEKEGLTAMANAAFRDVSFLLRRSHNEQVAKILSDPEASDNDKYVALTFLRNAEVSAKGKLPLCQDTGTAIIHGEKGQQVWTGYCDEEALSLGVYKTYTEENLRYSQNAPLTMYDEVNTKCNLPAQIDLEATEGMEYKFLCVTKGGGSANKTYLYQETKAVLNPATLVPFLVEKMKTLGTAACPPYHIAFVIGGTSAEKNLLTVKLASTHYYDELPTTGNEYGRAFRDVELEKQVLEEAYKIGLGAQFGGKYMAHDVRIIRLPRHGASCPIGLGVSCSADRNIKCKINKDGIWIEKMDDKPGELIPAELREAGEGDVVKIDLNQPMADILKELTKYPVATRLSLNGTIIVGRDIAHAKLKERLDRGEDLPQYIKDHPIYYAGPAKTPEGMACGSMGPTTAGRMDPYVDLFQSHGGSMIMLAKGNRSQQVTDACKKYGGFYLGSIGGPAAILAQNNIKSIECVEYPELGMEAIWKIEVEDFPAFILVDDKGNDFFKQLKPRCLGNCK | not soluble
3 | MPPKKNVVEEKPALIGRLGTNLKVGILGLPNVGKSTFFNVLTKSEAQAENFPFCTIDPNESRVAVQDDRFDWLVNHYKPASKVPAFLNVTDIAGLVKGASEGQGLGNAFLSHVSACDALFHLCRAFDDDDVTHVEGEVDPVRDLEIISNELFAKDLQFIDGPLDKVEKLFTRANDKTKKIEYDTLVRVKKCLEEKKPVRQELWNEKEIEILNKHLFLTAKPIVYLVNLSEKDYIRKKNKWLPKIKAWIDTNDAGAVLIPFSGAFELKLLDMPEDERQKYLKEQGVTSNLDKIVHTGYKALQLEYFFTSGEDEVKAWTIQVGTPAPKAAGRIHTDFEKGFIMAEVMKVADLIELGDEAKCKAGGKYRQQGKTYIVQDGDVIFFKFNAGAGLQAKKK | not soluble
4 | MKVEPYRLVVNEHQVNNTNSKENLKIVQLSDLHIKKDFNADRLDKVIQKTNEQNPDFIIFSGDLYDNYSQYNENEAVISKLKSLKAKYGKIAIWGNRDYGGGAVKEYANIMAESDFSLLRNENQVFTLDNGKKILFTGLDDALLGNPQFPSPNQMAETSYDILLTHEPDEVSQYQNKGYELILSGHSHGGQINVPLIPQIQKKATALMSHANNYTGGLYQLGANEKLYVNTGIGTTHLSARFGVAPEIAVLTFLEHHHHHH | not soluble
5 | MAENYQQAAKDIIQLIGMDNIISVTHCQTRLRFILKDHEQVDGKQLEKIDLVKGVFYNGGQYQVILGTGIVTKVYDEIEKLGINVVSKAEQTAI | not soluble
6 | MGSSHHHHHHGGTGENLYFQGGSGLRRTEIALKKGWTHNPGHTRRGGKNLAWRPKISDAKLSQFVPLALVHPRRHPNNWQERQFNALGYTKWPKDIGFYNAGDNFEVTPEAAWRLYVHARDEPYWGKLHCEKTIITLLPVVEKAPKENMERVLDVFRHYLKRYGADHYIYNAVMQAAAFAKNYEQAEQLFKEMETLGLEPNAQSYVNMMLAAKLCGLPPEKSEAYFKRAVKDGAMQSVMRMDTEFRMWMDQLDRLGSFTASSGYLSVNEEGAKPMPRDMWAIWGWHRSESKFISRRDLIMQQVRARVHSGKELVGTVYTKTRRQPWAKFNGMLRHDYNGPSYRAPTIFPDAPEYTNEAGHKAF | soluble
7 | MGSDKIHHHHHHMSNNLLVLQSDFGLVDGAVSAMIGVALQEAPTLGIHNLTHEITPYNIFEASYRLFQTVEYWPQGTTFVSVVDPGVGSDRKSVVALTSRNQYIVTPDNGTLSYIKKHVGIKAVREISEIENRRRNTELSYTFHGRDVYAFTGAKLASDHISFEEVGPELAIESIVELPVVETVIEDNLVRGAVDILDVRFGSLWTSITREEFYTLKPEFNDRFEVTIYNNDMLVYQNQVTYGKSFAAVRIGQPIIYINSLYRVGVAINQGSFANAYNVGVGPQWRIEIKKLN | not soluble
8 | MSLTGTSAIENVDSGNEESMIYQQVGDQTKVLTENDKYLVKCINSFNAEQLPIPSHVPFYSTIDGVNKQCSYNDNENLYVWNFINSKWDDSNYCKIPLNTDSSSSVNALPKSVFILPTNYDTDAEMLGLENSNSSNGIVGGVILVENTADATYLVYYEDMRSINHLSTSISKNMAHLLDLKLHSEEKVTLMLNSEPAGLVLATTEGRLMFITIRETNGKPCLTLKQQLIRPKGSGPLAFLSLFSSSNEIISLRNGPIIGKGERIVYVLTRNGRFQVWKLSVASKCVKMMDTNFYDSILDDLVELYPFAQGSLKILDTHPITNQPFSPQVVLTQISSSDETNFILSTIILDEQTNSFTIFSTYRLNTYIMKGNSALAKPKLCVPSSLQSATSKYFDLFIVFDKAVVITQTSSKLDSTYTLKRKWEDIISFNKEIQILAESNDASTVYLLTKGMGIISIIPKKERGETAYEESFVKSHLDQAIYFSSSSSNPVEFNLPGGLHLEQDEVENDLKTASEEILLSSSKYIPPLTDNIEKHLSLRLVYFRNLISFVKDNFAFSISPSKKLDIIENFELLNCFHKFNNFISSSNFELKSFWDRTLEANGNINEIELAVEKIHRFPDLFSTYLNTIIKELPSKSYTFKLTLADLIIETIYDAILEEGEKKLRYEFLSLDPLELNTHLPWFISIDILDSINQLFFDLKFSLEGQEKNANTQLLVIVKTLYYLFNQVRLFFLKENNMNDVSAQDFMKKCDQLYENNHLAWNQTLCELGLNEDSLEISEFYHDFVSLVETLDTLEAVESKALYEEYFARFGEQFAHTLFEYYVKKSKLQDLFYRFPEQQEFLVSFFKKYPQYGRVSWIFSIINYDYASAAATLYDITSGDRASAMTLESAQLYLNIAKLSTLAAHENHANVNLLGALKRIQANLDVVDGGKDLVEKLKRVDGAPSHLQANYKGTEFEKLFDLLVKKVTNGTMLQFVEVVILYSLIDDKECLYHALKLLAIDGDILELELKKFLISLIWRRSILFDIQNAYDTTSEDSTLHFVLKQYLEDELFRANCPLPTVGVLTEKTMFTESLLSSLFSNYELDTKKLQDILEKEYNTVESTAVDIEKRIIETISSLDKANDNSYTVNYHDLTIEYQNEGHHHHHH | soluble
9 | MSLKSADSATQQYLKEKHEEYLSLQHGLQRREETLLATVNQIVVNQHAFLLHQAALAPLLLRDVAKALQVNESTVSRTIKGKHLQTDLGIFAFKDFFSKRTQAVSSSAYHSVDQLKFTMMQLIQSENKMCPASDNLLVKWLYEKGFKVARRTVTKYRNELGLPAASARKSREGHHHHHH | soluble
10 | GPGSMDPNTCAPASAVTDEQPLTLLWGTWEMWCDMPQRQQGQSTENTNWLEQVKSIGLFDSAEGFWGIFNCTILPSQLPPNGSYYLFRKHIAPMWEHEANRRGGKWVIPFTGKASRSEGDLQPVDEAWQTLCLSAIGELFPGDEEEICGVTVSRGRQRTLPSGHATSALSEWKLCLWTRSADNRGSQIRIAEYIRKQLHLQPPSKEASRDGKSGEQDTLMEMPRSPDRSPVAKMREASGIPSAMTYVAHRDLMEAKQEFVKGGSSVAQAFRPKYTLAIDVRNEGV | soluble
11 | ALESARAGYWEWNVENGTILIDRQWAVISGYNSADFDMLTMEQWRELCHPADLGVVTKSIEELLDGSMERLELELRVRHKNGEWIRVLDCGKVTGRSKNGKPSCLTGSRQALASLHDK | soluble
12 | MKTTPVTPDDLQRSVIAVPPLARHADLTLNPAANQAVLRHLEAGGVRSVMYGGNANFYHVQVSEYAQLLDFLAESAGPDTWVLPSAGPDYGKLMDQAAILRTRDFPTAMLLPMSFPYTDAGLADGIRRFSDAMDRPAVVYIKSSDYLAPATVARLIGEGRIAALKYAVVREDPARDPYLDALLKEVDPRWIVSGIGERPAIVHFRQFGLRSFTSGSVCVAPRGSMRLLHLLHQGDFEAAEQVRAAYIPLEDCRDGISPIRVLHDAVTLAGVADMGPMLPLLSGLDPADRERVAPVARALLAGDRQ | not soluble
13 | MPHPTHCRSANAVFRARMEFGLLEAPVSFSTLMDKRERGSFDSQFLIAMPGLDDGNFARSVIYICAHSDAGAMGFIINRPQQITFTDILLHLKLVDSNDAIMLPNRTREFPIQCGGPVESGRGFVLHSDDYLSESSIPVSDDISLTATLDIVRAISNGRGPQKATMMLGYAGWGPGQLENEIANNGWLNCPAAEELIFDRGLDNKYERALALMGVDARMLSTDAGHALEHHHHHH | soluble
14 | MGSDKIHHHHHHMRRKIPSSASLQAFDAAARHGNFARAAEELSLTEGAISRQIARLEALLNCKLFDRMGSRVKLNPVGAHYAHHVRETLDRLERDTQYIMGMPEGSKSLDIAVLPTFSNRWLIPRLSGFNSLFPDITLNIAARTDPFILPGSGFDAVIHFEHSAWTGMRMQFLFQENLLPVCNPALLTNNDVNRQLNELPRIHRRQNPEAWHHYARESGIRLDNPAQGVRYDLHEMTIAAVIAGHGVALVPRMYVENELSCGMLVSPWPASDCLSKKFCLVKPMETGINEDALESFERWLLAEMNTLTSLNAER | not soluble
15 | MKVVLATGNPGKVRELKEGLAPLGWTLLTLADFALRMPKEEGATFLENALLKAAYVAKATGLPALADDSGLEVYALGGEPGVYSARYGGRATDRERNVYLLERMRHLKGEERKARFVAVLVLAYPDGHAEAYEGSVEGVILEAPRGEGGFGYDPLFYVPEAGKTFAEMGLEEKARYSHRGKALRALLEAYKDGPPPREVSKLE | soluble
16 | MHGTCLSGLYPEPFTHNSHDYPHFNIYISFGGPKYCITALNTYVIPLLHHILTTQFIHTYFNIPTKSPPKSPKHKNYLSFNFTK | soluble
17 | MSLNKQDKKWRVLVVDDDADVLTNTVYTLMDLKVLGRELDITTLGSATAAIELLERERDFAVILLDVVMEKPHAGLSLVTMIRHDFNMQMSRIILRTGNPGYAPERDITLKLEIDDYILKQTAVRDRIITAVIVAIRAYDQLQRLARLKDAMQQIICCSNQLLTTDEIDQFANVCMQYVAPIFGKNAGGGLAYAGMTVNQGIVPLTVMSATSEHESLIEPLNGEGHHHHHH | not soluble
18 | MGSDKIHHHHHHMGASFNQAGFVKRIFTSHGTTLFVDTSSGELRHGLMEYSPNNVLLTKDGKSAHIRFVDGPTDIVYFTEYSAISGSKRIDGIDALNLMPDNTLTIVDLPRNKFGLVQNGTFLSARSDGRITLSAPLCRGWENFHFRKDASEVSGVIVSHRIDGKIITFFIQDRTDIIQSILFGGDFYERDTLDLIRDRSTPGKVFVDIGANIGNHSIFMSKFCSPSEVIVFEPNPKAIEILKLNVLLNACANINTSYLGLALGSKAAQMRVFSPDPNNMGRAQMLDDDDGNVKCVAGDLLLQQKPVGLLKIDVEGSEFEVLRGMQGTIETWRPNILIEVWPQSQQDLFSWCDSFRYVVQETFPTDNNYFLAPIERQS | not soluble
19 | MSVRIEDHAMLGNCHSAALVDHRGTIGWLCLPRFDSDAVFAALLGDQQHGQWALSPAADFRTERAYQDDSLVLCTRMITDSGTVELIDFMVASENGEVHQHLVRIVRCVQGSVPMHMRLTFRFNYGRTLEHHHHHH | soluble
